The term Kd denotes the concentration at which binding is half-saturated.

This note sets out measurements from article PMC7036363, “Analysis of HrpG regulons and HrpG‐interacting proteins by ChIP‐seq and affinity proteomics in Xanthomonas campestris”.

The target of series [1] is recombinant HUXcc-His6 (Xanthomonas campestris pv. campestris). Put plainly: MST; HUXcc labelled with NT-647 (RED-NHS kit), purified HrpG titrated from 0.001 to 17 μM in a 1:1 series dilution; 1 x MST buffer (50 mM Tris, 150 mM NaCl, 10 mM MgCl2, pH 6) with 0.05% Tween; Monolith NT.115, standard treated capillaries; KD-Fit function.
The target of series [2] is HrpG (Xanthomonas campestris pv. campestris 8004) (UniProt Q8PBF6). Put plainly: MST. The settings on record: MST: 50 mM Tris-HCl pH 7.4, 150 mM NaCl, 10 mM MgCl2, 0.05% Tween-20; EMSA: 10 mM Tris-HCl pH 7.5, 50 mM KCl, 1 mM DTT, 50 ng poly(dI:dC), 0-40 uM protein …. (In general: In EMSA bound probe runs differently from free probe, usually more slowly.)
Another series has as its target HrpG (Xanthomonas campestris pv. campestris …, UniProt Q8PBF6 1-262). Briefly: MST; 10 mM MgCl2; MST: 50 mM Tris-HCl pH 7.4, 150 mM NaCl, 10 mM MgCl2, 0.05% Tween-20; EMSA: 10 mM Tris-HCl pH 7.5, 50 mM KCl, 1 mM DTT, 50 ng poly(dI:dC), 0-40 uM protein, 28 C 30 min. The settings on record: protein: recombinant; text writes HrpG-His6; chain copies: 2; label: 5'-FAM; blunt.

For “HrpG-His6 recombinant protein (natural protein)”, in series [1], the dissociation constant Kd is 640 nM.
hpa2p MST fragment came in with a Kd in series [2] of 2220 nM.
The same measure, in the same setting: under hrcUp MST fragment stands 1790 nM.
Same read-out and setting: under hrpEp MST fragment stands 2300 nM.

B1: Motif-1 (HrpG consensus motif probe) (dsDNA)
DNA 1: CTTCGAAGTGAGAAATTCTATTGGATCCGC
DNA 2: GCGGATCCAATAGAATTTCTCACTTCGAAG
Regarding B1, the Kd with HrpG came to 6.96 ± 1.44 µM.

B2: Motif-2 (mutated HrpG motif probe) (dsDNA)
DNA 1: CTTCGAAGTGAGAACGGAATCCGGATCCGC
DNA 2: GCGGATCCGGATTCCGTTCTCACTTCGAAG
Regarding B2, in the series with HrpG, the binding result is given as “no binding”.
